Reference: the nanobody polyreactivity screen of Harvey et al. (2022)

Test: yeast display, Sf9 membrane polyspecificity reagent, FACS + sequencing; frameworks hold sequencing errors
How it was run: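 A nanobody's polyreactivity label depends on the gate it was sorted from. Yeast display cells were stained with 10% biotinylated, detergent-solubilized Sf9 membrane reagent for 1 hour at 4 °C, enriched on streptavidin microbeads and sorted by FACS. The low and high (top ~1%) gates were set on anti-HA fluorescence for expression and streptavidin fluorescence for reagent binding.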

Row | Sequence | polyreactivity (PSR sort gate)
1 | QVQLVESGGGLVQAGGSLRLSCAASGRTFYTYAMGWYRQAPGKEREFVAAIDWSGGTTYYADSVKGRFTISRDNAKNTVFLQINSLKPEDTAVYYCAADDSFYRQYYYRAHGDYWGQGYQVTVSS | low polyreactivity
2 | QVQLVESGGGLVQAGGSLRLSCAASGSIFVIYAMGWYRQAPGKERELVAAITDSATTNYADSVKGRFTISRDNAKNTVYLQMNSLKPEDTAVYYCAAEYSSYPTAWSTYEFDYWGQGTQVTVSS | low polyreactivity
3 | QVQLVESGGGCSGGRSLRLSCAASGLIFDDNAMGWYRQAPGKERELVAAITWSTSSTYYADSVKGRFTISRDNAKNNVYLQMNSLKREDTAVYYCNKRYKFRYYYWGQGTQVTVSS | low polyreactivity
4 | QVQLQESGGVQAGGSLRQSCAASGYISRSDVMGWYRQAPGKERELVATINNATITYYADSVKGRFTISRDNAKNTVYLQMNSLKPEDTAVHYFAVVQSDTDSLYYWGQGTQVTVSS | low polyreactivity
5 | QVQHVESGGGLVQAGGSLRLSCAASGRIFYGYAMGWYRQAPGKERELVAAISSSGGSTYYADSVKGRFTISRDIAKNTVYLQMNSLKPEDTAVYYCNAQRYRPGYWYDYWGQGTQVTVSS | high polyreactivity
6 | QVQLVESGGGLVQAGGSLRLSCAASGSTFCFNAMGWSRQAPGKEREMVAAIPSRGGSTYYADSVKGRFTSSRDNAKKTVYLQMKSLKPEDTAVYYCASDYFGFSYAGYNYWGQGTQVTVSS | low polyreactivity
7 | QVQLVESGGGLVQAGGRLRLSCAASGSTFVRYAMGWYRQAPGKERELVAAISSSGATTYYADSVKGRFTISRDNAKNTVYLQMNSLKPEDTAVYYCAKYGRATRGLDNYWGQGTQVTVSS | high polyreactivity
8 | QVQLVESGGGLVQAGGSLRLSCAASGRIFYPYAMGWYRQAPGKERELVGYSRGGSTNYADSVKGRFTISRDNAKNTVYLQMNSLKPEDTAVYYCARDVHRSGYLIFDYWGQGTQVTVSS | low polyreactivity
9 | QVQLVESGGGLVQAGGSLRLSCAASGFTFNDYAMGWYRQAPGKERELVAAIDWSGGRTYYADSVKGRFTISRDNAKNTVYLQMNSLKPEDTAVYYCATEYYDGYFPTFDYDYWGQGTQVTVSS | low polyreactivity
10 | QVQLVESGGGLVQARGSLRLSSGASGSTFATDYAMGWYRQAPGKERELDAAIAYTSASTYYADSVKGRITISRDNAKNPVYLQMNTLKPEDTAVYYCAADYGGTREYYWGQGTQVTVSS | low polyreactivity
11 | QVQLVESGGGLDQAGGSLRLSCAASGTTFVPNDMGWYRQAPGKERELVAAITDSGGSTYYADSVWGRFTISRDNAKNTVYLQMNILKPEDTAVYYCADVQHYVTHMDYWGQGNQVTVSS | low polyreactivity
12 | QVQLVESGGGLVQAGGSLRLSCAASGSTLKYNAMGWYRQATGKERELVAAISTSGGNTYYADSVKGRFTISRDNAKNTVYLQMNSLKPEDPAVYYFAKVLGYYYYDYDSWGQGTQVTLSS | low polyreactivity
13 | QVQLVESVGGLVQAGGSLRLSCAASGSTFYIYAMRWYRQAPGKERELVARISGSGGSTYYADSVKGRFTISRDNAKNTVYLQMNSLKPEDTAVYYCAADAIYKYYQYYAFPYYRYDYWGLGTQVTVSS | low polyreactivity
14 | QVQLVESAGGLVQAGGTLRLSCAASGRIIYRYGMGWYRQAPGKERELVASITRGGSTYYADSVKGRFTISRDNAKNTVYLQMNSLKPEDTAVYYCATKSSAGYDYWGQGTQVTVSS | low polyreactivity
15 | QVQLVESGGGLVQAGGSLRLSCSAYGSILWYNAMGWYRQAPGKERELVAAINRGGSTNYADSVKGRFTISRDNAKNTVYLQMNSLKPEDTAVYYCAADRLLVSAGGVQFDYWGQGTQVTVSS | low polyreactivity
16 | QVQLVESGGGLVQAGGSLRLSCAASGFIFRQDAMGWYRQAPGKERELVAAISWRGGSTYYADSVKGRFTISRDNAKNTEYLQMNSLKPEDTAVYYCATRQTKYSNYRGDYWGQGTQVTVST | high polyreactivity
17 | QVQLVESGGGLVQAGGSLRLSCAASGIIFVRYTMGWYRQAPGKERELVAAISSSGGSTYYADSVKGRFTISRDNAKNTVYLQMNSLKPEDTAVYYCNAEIRDNNVGYYTDYDYWGQGTQVTVSS | high polyreactivity
18 | QVQLVESGGGLVQAGGSLRLSCAASGSIFQVNAMGWYRQAPGKERELVASITTSGGSTYYADSVKGRFTISRDNAKNTVYLQMNSLKPEDTAVYYCAADHWSQDYDYWGQGTQVTVSS | low polyreactivity
19 | QVQLVESGGGLVQAGGSLRLSCAASGSIFPGYVMGWYRQAPGTERELVAAISWSGGSTYYADSVKGRFTISRDNAMNTVYLQLNSLKPEDTAVYYWAADYSYYHGPSRHKHDYWGQGTQVTVSS | low polyreactivity
20 | QVQLVESGARLVQAGGSLRLSCAASGRTVAYNAMGWSREAAGKEREVDPAISRRGGSTYYADSVKGRFTISRDNAKNTVNLQMNSLKPEDTAVYYCASRRLRRASSLDYWGQGSQVTVSS | high polyreactivity
21 | QVQLVETGGGIFQAGGSIRLSCAASGRTFSTYAKGWYRQAPGKERELVAGISRGGGSTYYADSVKGRFTISRDNAKNTVYLLMNSLKPEDTAVYYCAAKRPQYYVQYGYWGQGSQVTVSS | high polyreactivity
22 | QVQLVESGGGLVQAGGSLRLSCAASGLTYADYAMGWYRQAPGKDRQLVAAISRRGGSTYYADSVKGRFTISRDKAKNTVYLQMNSLKPEDTAVYYCAAYAYDVAFKRYKFDYWGQGTLVTVSS | high polyreactivity

Row | Sequence | polyreactivity (PSR sort gate)
23 | QVQHVESGGGLVQAGGSLRLSCAASGRIFHYYAMGWYRQAPGKERELVATISRRGGTTYYADSVKGRFTISRDNAKNTVYLQMNSLKPEDTAVYYCAAKYFGTRYDYWGQGTQVTVSS | high polyreactivity
24 | QVQLVESGRGIVQAGRSLRLSCPASGRIYPNAIGWYRQAPGKEREFVAAISRSDGSTYYADSVNGRFTISRDNAKNTVYLQMNSLKPEDTAVYYCATDYRFTSRTANFDYWGQGTLVTVSS | low polyreactivity
25 | QVQLVESGGGLVQAGGSLRLSCAASGITFARYAMGWYRQAPGKERELVAAISSRGGRTYYADSVKGRFTISRDNAKNTVYLQMNSLKPEDTAVYYCAADYVWSTISGYWGQGTQVTVSS | high polyreactivity
26 | QVQLQESGGGLVQAGGSLRQSYAASGYIFPSLAMGWYRQAPGKEREFVAAIGRGSTNNYADSVKGRFTISRDNAKNTAYQQMNSLKPEDTAVYYCAADASPLTRNLYWGQGTQVTVSS | low polyreactivity
27 | QVQLVESGGGLVQAGGSLRLSCAASGYIFRRYAMGWYRQAPGKERELVAAISKSGVSTYYADSVKGRFTISRDNAKNTVYLQMNSLKPEDTAVYYCAASSYTWGEDYWGQGTQVTVSS | high polyreactivity
28 | QVQLEESGGGLVQAGGSLRLSCAASGSTFTPYAMGWYRQAPGKERELVAAISWSGGSTYYADSVKGRFTISRDNAKNTVYLQMNSLKPEDTAVYYCAATYSYRTRAWGWGNYDYWGQGTQVTVSS | high polyreactivity
29 | QVQLVESGGGLVQAGGSLRLSCAASGRIFRRYAMGWYRQAPGKERELVASISSGGSTNYADSVKGRFTISRDNAKNTVYLQMNSLKPEDTAVYYCAAAYPWQTRYSSPYYYWGQGTQVTVSS | high polyreactivity
30 | QVQLVESGGGLVQAGGSLRLSCAASGTIFFGNTMGWYRQAPGKERELVAVITSSGGRTFYADSVKGRFTISRDNAKNTVYLHMNSLKPEDTAVYYCAAGHGFYYFTPTHDSWGQGTQVTVSS | high polyreactivity
31 | QVQLVESGRCLVQDGRSLRLSCAASGRTFYGNAMGWYRQAPAKERELVAAISRSGGRTYYADSVKGRFTISRDNAKNTVYLEMISLKPEDTAVYYFASEIRFWYGYYYWGQGTQVTVSS | high polyreactivity
32 | QVQLVESGGGLVQAGGSLRLSCAASGRIYNSNAMGWYRQAPGKERQLVAAITTSGASTYYADSVKGRFTISRDNAKNTVYLQMNSLKPEDTSVYYCATYAVVYPFAMDYWGQGTQVTVSS | low polyreactivity
33 | QVQHVESGGGLDQAGGSLRLSCAASGRIYCTNAMGWYRQAPGKESELVADITSGGSTNYADSVKGRFSISRDNAKNTVYLQMTSLKPEDTAVYYCAADVIGDLRWYRDEYWGQGTQVTVAS | low polyreactivity
34 | QVQLVESGGGLVQAGGSLRLSCAASGFTCKKYAMGWSRQAPGKERDLVASITWYGGSTSYADSVKGRFTISRDNANNTVYLQMNSLKPEDTAVYYCAAATFVYRLRYNRFDYWGQGTQVTVSS | high polyreactivity
35 | QVQLEDSGGGLVQAGGSLRLSCAASGFNFYYNAMGWYRKAPGKERELVAAISWSDGGTYYADSVKGRFTISRDNAKNTVYLQMNSLKPEDTAFYYCAADFRLRAYYPGYEYWGQGTQVTVSS | low polyreactivity
36 | QVQLVESGGGLVQAGGSLRLSCAASGSIFKKYAMGWYRQAPGKERELVAAISSVGGTYYADSVKGRFTISRDNAKNTVYLQMNSLKPEDTAVYYWYTDGYVGSIRSGLYIYDYWGQGTQVTVSS | low polyreactivity
37 | QVQLVESGGGLVQAGGSLRLSCAASGSNFTYNRMGWYRQAPGKEREFVDAITWTGGSTYAYSVKGRFTISRDNAKNTVYLQINSLKPEDTAVYYCAAVRRISWYTPVITRRYYYWGQGTQVTVSS | high polyreactivity
38 | QVQLVESGGGLVQAGGSLRLSCAASGSIFDSNTMGWYRQAPRKERELVAAITGTGTSTYYADSVKGRFTISRDNAKNTVYLQMNSLKPEDTAVYYCAADLEYKTWWYDYWGQGTQVTVSS | low polyreactivity
39 | QVQLVESGGGLVQAGGSLRLSCAASGRIFYYYAMGWYRQAPGKERELVAVISRGGRTKYADSVKGRFTISRDNAKNTVYLQMNSLKPEDTAFYYCAAYPSYYGDSGLRYDYWGQGTQVPVSS | high polyreactivity
40 | QLQLVESGGGLVQAGGSLRLSCAASGSIFHRYAMGWYRQAPGKEREFVAAISGRGGSTYYADSVKGRITISRDNAKNTVYLQMNSLKPEDTAVYYCAADSSLFYGRPRYYYWGQGTQVTVSS | high polyreactivity
41 | QVQLVESGGGLVQAGGSLRLSCAASGRIFAPYAMGWYRQAPGKEREVVAGITRGGITNYADSVKGRFTISRDNAKNTVYLQMNSLKPEDTAVYYCATVVNRRGFYQYYYWGQGTQVTVSS | high polyreactivity
42 | QVQLVESGGGLVQAGGSLRLSCAASGRTFNIYAMGWYRQAPGKERELVAAISSGGSTYYADSVKGRFTISRDNAKNTVYLQMNSLKPEDTAVYYCAAVEFELRGDYWGQGTQVTVSS | low polyreactivity
43 | QVQLVESGGGLVQAGGSLRLSCAASGLTFGNYAMGWYRQAPGKERELVAAISKRGGTTYYADSVKARFTISRDNAKNTVYLQMNSLKPEDTAVYYCSARDYSHPTDDNYWGQGTQVTVSS | high polyreactivity
